{
  "source": "IntAct's records for PubMed 23572552",
  "parents": {"B1": {"name": "Golgi resident protein GCP60 (Homo sapiens), Q9H3P7 (parent)", "chain": "MAAVLNAERLEVSVDGLTLSPDPEERPGAEGAPLLPPPLPPPSPPGSGRGPGASGEQPEPGEAAAGGAAEEARRLEQRWGFGLEELYGLALRFFKEKDGKAFHPTYEEKLKLVALHKQVLMGPYNPDTCPEVGFFDVLGNDRRREWAALGNMSKEDAMVEFVKLLNRCCHLFSTYVASHKIEKEEQEKKRKEEEERRRREEEERERLQKEEEKRRREEEERLRREEEERRRIEEERLRLEQQKQQIMAALNSQTAVQFQQYAAQQYPGNYEQQQILIRQLQEQHYQQYMQQLYQVQLAQQQAALQKQQEVVVAGSSLPTSSKVNATVPSNMMSVNGQAKTHTDSSEKELEPEAAEEALENGPKESLPVIAAPSMWTRPQIKDFKEKIQQDADSVITVGRGEVVTVRVPTHEEGSYLFWEFATDNYDIGFGVYFEWTDSPNTAVSVHVSESSDDDEEEEENIGCEEKAKKNANKPLLDEIVPVYRRDCHEEVYAGSHQYPGRGVYLLKFDNSYSLWRSKSVYYRVYYTR", "partner": "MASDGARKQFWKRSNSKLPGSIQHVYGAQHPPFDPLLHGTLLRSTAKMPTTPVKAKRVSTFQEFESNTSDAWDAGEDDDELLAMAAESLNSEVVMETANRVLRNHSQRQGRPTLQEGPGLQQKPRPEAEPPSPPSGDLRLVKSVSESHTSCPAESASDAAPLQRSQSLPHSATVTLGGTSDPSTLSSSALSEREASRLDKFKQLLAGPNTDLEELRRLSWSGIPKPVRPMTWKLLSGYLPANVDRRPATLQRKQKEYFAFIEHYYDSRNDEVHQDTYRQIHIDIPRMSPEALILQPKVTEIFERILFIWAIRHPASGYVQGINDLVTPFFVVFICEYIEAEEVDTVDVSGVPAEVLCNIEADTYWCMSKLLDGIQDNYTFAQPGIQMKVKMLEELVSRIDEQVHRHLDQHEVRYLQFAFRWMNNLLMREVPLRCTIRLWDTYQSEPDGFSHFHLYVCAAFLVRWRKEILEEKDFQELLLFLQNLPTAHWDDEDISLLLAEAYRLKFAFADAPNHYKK"}},
  "data": [
    {"variants_of": "B1", "conditions": "with tb22a_human TBC1D22A", "values": [
      {"variant": "MAAVLNAERLEVSVDGLTLSPDPEERPGAEGAPLLPPPLPPPSPPGSGRGPGASGEQPEPGEAAAGGAAEEARRLEQRWGFGLEELYGLALRFFKEKDGKAFHPTYEEKLKLVALHKQVLMGPYNPDTCPEVGFFDVLGNDRRREWAALGNMSKEDAMVEFVKLLNRCCHLFSTYVASHKIEKEEQEKKRKEEEERRRREEEERERLQKEEEKRRREEEERLRREEEERRRIEEERLRLEQQKQQIMAALNSQTAAAAQQYAAQQYPGNYEQQQILIRQLQEQHYQQYMQQLYQVQLAQQQAALQKQQEVVVAGSSLPTSSKVNATVPSNMMSVNGQAKTHTDSSEKELEPEAAEEALENGPKESLPVIAAPSMWTRPQIKDFKEKIQQDADSVITVGRGEVVTVRVPTHEEGSYLFWEFATDNYDIGFGVYFEWTDSPNTAVSVHVSESSDDDEEEEENIGCEEKAKKNANKPLLDEIVPVYRRDCHEEVYAGSHQYPGRGVYLLKFDNSYSLWRSKSVYYRVYYTR", "note": "[V256A;Q257A;F258A]", "effect of a mutation on the interaction": "disrupting interaction strength"},
      {"variant": "MAAVLNAERLEVSVDGLTLSPDPEERPGAEGAPLLPPPLPPPSPPGSGRGPGASGEQPEPGEAAAGGAAEEARRLEQRWGFGLEELYGLALRFFKEKDGKAFHPTYEEKLKLVALHKQVLMGPYNPDTCPEVGFFDVLGNDRRREWAALGNMSKEDAMVEFVKLLNRCCHLFSTYVASHKIEKEEQEKKRKEEEERRRREEEERERLQKEEEKRRREEEERLRREEEERRRIEEERLRLEQQKQQIMAALNSQTAVQFQQYAAQQYPGNYEQQQILIRQLQAAAAQQYMQQLYQVQLAQQQAALQKQQEVVVAGSSLPTSSKVNATVPSNMMSVNGQAKTHTDSSEKELEPEAAEEALENGPKESLPVIAAPSMWTRPQIKDFKEKIQQDADSVITVGRGEVVTVRVPTHEEGSYLFWEFATDNYDIGFGVYFEWTDSPNTAVSVHVSESSDDDEEEEENIGCEEKAKKNANKPLLDEIVPVYRRDCHEEVYAGSHQYPGRGVYLLKFDNSYSLWRSKSVYYRVYYTR", "note": "[E282A;Q283A;H284A;Y285A]", "effect of a mutation on the interaction": "disrupting interaction strength"},
      {"variant": "MAAVLNAERLEVSVDGLTLSPDPEERPGAEGAPLLPPPLPPPSPPGSGRGPGASGEQPEPGEAAAGGAAEEARRLEQRWGFGLEELYGLALRFFKEKDGKAFHPTYEEKLKLVALHKQVLMGPYNPDTCPEVGFFDVLGNDRRREWAALGNMSKEDAMVEFVKLLNRCCHLFSTYVASHKIEKEEQEKKRKEEEERRRREEEERERLQKEEEKRRREEEERLRREEEERRRIEEERLRLEQQKQQIMAALNSQTAVQFQQYAAQQYPGNYEQQQILIRQLQEQHYQQYMQQLYQVQLAQQQAALQKQQEVVVAGSSLPTSSKVNATVPSNMMSVNGQAKTHTDAAEKELEPEAAEEALENGPKESLPVIAAPSMWTRPQIKDFKEKIQQDADSVITVGRGEVVTVRVPTHEEGSYLFWEFATDNYDIGFGVYFEWTDSPNTAVSVHVSESSDDDEEEEENIGCEEKAKKNANKPLLDEIVPVYRRDCHEEVYAGSHQYPGRGVYLLKFDNSYSLWRSKSVYYRVYYTR", "note": "[S344A;S345A]", "effect of a mutation on the interaction": "with no effect"},
      {"variant": "MAAVLNAERLEVSVDGLTLSPDPEERPGAEGAPLLPPPLPPPSPPGSGRGPGASGEQPEPGEAAAGGAAEEARRLEQRWGFGLEELYGLALRFFKEKDGKAFHPTYEEKLKLVALHKQVLMGPYNPDTCPEVGFFDVLGNDRRREWAALGNMSKEDAMVEFVKLLNRCCHLFSTYVASHKIEKEEQEKKRKEEEERRRREEEERERLQKEEEKRRREEEERLRREEEERRRIEEERLRLEQQKQQIMAALNSQTAVQFQQYAAAAAPGNYEQQQILIRQLQEQHYQQYMQQLYQVQLAQQQAALQKQQEVVVAGSSLPTSSKVNATVPSNMMSVNGQAKTHTDSSEKELEPEAAEEALENGPKESLPVIAAPSMWTRPQIKDFKEKIQQDADSVITVGRGEVVTVRVPTHEEGSYLFWEFATDNYDIGFGVYFEWTDSPNTAVSVHVSESSDDDEEEEENIGCEEKAKKNANKPLLDEIVPVYRRDCHEEVYAGSHQYPGRGVYLLKFDNSYSLWRSKSVYYRVYYTR", "note": "[Q264A;Q265A;Y266A]", "effect of a mutation on the interaction": "with no effect"},
      {"variant": "MAAVLNAERLEVSVDGLTLSPDPEERPGAEGAPLLPPPLPPPSPPGSGRGPGASGEQPEPGEAAAGGAAEEARRLEQRWGFGLEELYGLALRFFKEKDGKAFHPTYEEKLKLVALHKQVLMGPYNPDTCPEVGFFDVLGNDRRREWAALGNMSKEDAMVEFVKLLNRCCHLFSTYVASHKIEKEEQEKKRKEEEERRRREEEERERLQKEEEKRRREEEERLRREEEERRRIEEERLRLEQQKQQIMAALNSQTAVQFQQYAAQQYPGNYEQQQILIRQLQEQHYQQYMQQLYQVQLAQQQAALQKQQEVVVAGSSLPTSSKVNATVPSNMMSVNGQAKTHTDSSEKELEPEAAEEALENGPKESLPVIAAPSMWTRPQIKDFKEKIQQDADSVITVGRGEVVTVRVPTHEEGAAAFWEFATDNYDIGFGVYFEWTDSPNTAVSVHVSESSDDDEEEEENIGCEEKAKKNANKPLLDEIVPVYRRDCHEEVYAGSHQYPGRGVYLLKFDNSYSLWRSKSVYYRVYYTR", "note": "[S414A;Y415A;L416A]", "effect of a mutation on the interaction": "with no effect"},
      {"variant": "MAAVLNAERLEVSVDGLTLSPDPEERPGAEGAPLLPPPLPPPSPPGSGRGPGASGEQPEPGEAAAGGAAEEARRLEQRWGFGLEELYGLALRFFKEKDGKAFHPTYEEKLKLVALHKQVLMGPYNPDTCPEVGFFDVLGNDRRREWAALGNMSKEDAMVEFVKLLNRCCHLFSTYVASHKIEKEEQEKKRKEEEERRRREEEERERLQKEEEKRRREEEERLRREEEERRRIEEERLRLEQQKQQIMAALNSQTAVQFQQYAAQQYPGNYEQQQILIRQLQEQHYQQYMQQLYQVQLAQQQAALQKQQEVVVAGSSLPTSSKVNATVPSNMMSVNGQAKTHTDSSEKELEPEAAEEALENGPKESLPVIAAPSMWTRPQIKDFKEKIQQDADSVITVGRGEVVTVRVPTHEEGSYLAAAAATDNYDIGFGVYFEWTDSPNTAVSVHVSESSDDDEEEEENIGCEEKAKKNANKPLLDEIVPVYRRDCHEEVYAGSHQYPGRGVYLLKFDNSYSLWRSKSVYYRVYYTR", "note": "[F417A;W418A;E419A;F420A]", "effect of a mutation on the interaction": "with no effect"}
    ]}
  ]
}
